According to patent publication US20240018240A1 (Hoffmann-La Roche, published 2024):
Changes are numbered by the printed parent chain.

B1: PLAP H1 CD3 P035.093 TCB (bispecific antibody, human IgG1, kappa, L234A L235A)
heavy 1: not shown
heavy 2: QVQLQESGPGLVKPSETLSLTCTVSGFSLTSYGVSWIRQPPGKGLEWIGVIWEDGSTNYHSALISRVTISVDTSKNQFSLKLSSVTAADTAVYYCARPHYGSSYVGAMEYWGAGTTVTVSSASTKGPSVFPLAPSSKSTSGGTAALGCLVEDYFPEPVTVSWNSGALTSGVHTFPAVLQSSGLYSLSSVVTVPSSSLGTQTYICNVNHKPSNTKVDEKVEPKSCDKTHTCPPCPAPEAAGGPSVFLFPPKPKDTLMISRTPEVTCVVVDVSHEDPEVKFNWYVDGVEVHNAKTKPREEQYNSTYRVVSVLTVLHQDWLNGKEYKCKVSNKALGAPIEKTISKAKGQPREPQVCTLPPSRDELTKNQVSLSCAVKGFYPSDIAVEWESNGQPENNYKTTPPVLDSDGSFFLVSKLTVDKSRWQQGNVFSCSVMHEALHNHYTQKSLSLSP
light 1: DIQMTQSPSSLSASVGDRVTITCRASENIYSYVAWYQQKPGKAPKLLIYNAKSLASGVPSRFSGSGSGTDFTLTISSLQPEDFATYYCQHHYVSPWTFGGGTKLEIKRTVAAPSVFIFPPSDRKLKSGTASVVCLLNNFYPREAKVQWKVDNALQSGNSQESVTEQDSKDSTYSLSSTLTLSKADYEKHKVYACEVTHQGLSSPVTKSFNRGEC
light 2: EVQLLESGGGLVQPGGSLRLSCAASGFTFSSYAMNWVRQAPGKGLEWVSRIRSKYNNYATYYADSVKGRFTISRDDSKNTLYLQMNSLRAEDTAVYYCVRASNFPASYVSYFAYWGQGTLVTVSSASVAAPSVFIFPPSDEQLKSGTASVVCLLNNFYPREAKVQWKVDNALQSGNSQESVTEQDSKDSTYSLSSTLTLSKADYEKHKVYACEVTHQGLSSPVTKSFNRGEC
notes: also called PLAP H1 TCB; PLAP (H1) TCB
B2: PLAP H5 CD3 P035.093 TCB (bispecific antibody, human IgG1, kappa, L234A L235A)
heavy 1: not shown
heavy 2: B1 heavy 2 with F27G, L29V
light 1: B1 light 1
light 2: B1 light 2
notes: also called PLAP H5 TCB; PLAP (H5) TCB
B3: PLAP H2 CD3 P035.093 TCB (bispecific antibody, human IgG1, kappa, L234A L235A)
heavy 1: not shown
heavy 2: B1 heavy 2 with P41A, I69M
light 1: B1 light 1
light 2: B1 light 2
notes: also called PLAP H2 TCB; PLAP (H2) TCB
B4: PLAP H4 CD3 P035.093 TCB (bispecific antibody, human IgG1, kappa, L234A L235A)
heavy 1: not shown
heavy 2: B1 heavy 2 with F27G, L29I
light 1: B1 light 1
light 2: B1 light 2
notes: also called PLAP H4 TCB

Each binder was assayed against T1, Human CD3ε stalk-Fc(knob)-Avi/CD3δ stalk-Fc(hole) (human) (assay: SPR (Biacore T200, 25°C); TCB captured by anti-PG antibody on CM5 chip, 300 nM human CD3ε/δ injected; relative active concentration).
T1 construct: Heterodimer of CD3 delta and CD3 epsilon ectodomains fused to a human Fc domain with knob-into-hole modifications and C-terminal Avi-tag; also called human CD3ε/δ; CD3ε/δ
Method: SPR experiments were performed on a Biacore T200 instrument (GE Healthcare) at 25° C. with HBS-P+(10 mM HEPES, 150 mM NaCl pH 7.4, 0.05% Surfactant P20) as running and dilution buffer. Anti-PG antibody (see Example 3) was immobilized by amine coupling (using amine coupling kit, Cytiva #BR100050) at a density of >6000 RU on a CM5 Chip (Sensor Chip CM5, Cytiva #29104988). The 10 nM solutions of TCB molecule samples in HBS-P+ were captured for 30 sec at a flow rate 10 μl/min. Then a 300 nM solution of human CD3ε/δ (see Example 3, SEQ ID NOs 24 and 25) was injected for 150 sec association time and 120 sec dissociation time at a flow rate of 10 μl/min. The regeneration of the surface followed by a 35 sec regeneration step with a 20 mM NaOH solution. The data were analyzed with the Biacore T200 Evaluation and Excel software. For the calculation of relative active concentration (RAC) the binding report point (BRP) was used (the BRP is a standard readout point in SPR, maximum response (unit/value) of interaction between antigen and antibody).

Binder | RAC % of CD3 binding, stress A [%] | RAC % of CD3 binding, stress B [%] | RAC % of CD3 binding, unstressed [%]
B1 | 100 | 98 | 100
B2 | 97 | 99 | 100
B3 | 100 | 96 | 100
B4 | 100 | 98 | 100

What follows are binders tested against human ALPG (ALPPL2) expressed on CHO-K1 cells (human, UniProt P10696 20-503) (assay: cell-based or functional assay).

Binder | EC50 (pM), Jurkat NFAT reporter assay (luminescence, 6 h) [pM]
B1 | 40
B2 | 34
B3 | 22
B4 | 34

The binders below were run against T2, human PLAP (ALPP) expressed on CHO-K1 cells (human, UniProt P05187 23-506) (assay: cell-based or functional assay).
T2 sequence (P05187 23-506): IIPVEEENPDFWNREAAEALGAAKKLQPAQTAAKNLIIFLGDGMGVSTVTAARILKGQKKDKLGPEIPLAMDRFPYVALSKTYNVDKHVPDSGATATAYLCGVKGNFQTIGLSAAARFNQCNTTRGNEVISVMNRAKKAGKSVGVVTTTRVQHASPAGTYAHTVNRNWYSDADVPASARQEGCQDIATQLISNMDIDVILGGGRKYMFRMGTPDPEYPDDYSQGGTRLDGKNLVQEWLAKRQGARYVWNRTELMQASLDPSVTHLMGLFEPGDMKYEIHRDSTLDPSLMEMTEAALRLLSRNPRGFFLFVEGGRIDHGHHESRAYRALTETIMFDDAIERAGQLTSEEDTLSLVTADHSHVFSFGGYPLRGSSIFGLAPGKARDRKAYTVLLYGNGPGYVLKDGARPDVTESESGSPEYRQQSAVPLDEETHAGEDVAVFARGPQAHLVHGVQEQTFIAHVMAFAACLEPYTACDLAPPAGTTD

Binder | EC50 (pM), Jurkat NFAT reporter assay (luminescence, 6 h) [pM]
B1 | 37
B2 | 36
B3 | 21
B4 | 36

Biological target: T3, cynomolgus PLAP (ALPP) expressed on CHO-K1 cells (cynomolgus, UniProt P05187 23-452 (human entry))
T3 chain: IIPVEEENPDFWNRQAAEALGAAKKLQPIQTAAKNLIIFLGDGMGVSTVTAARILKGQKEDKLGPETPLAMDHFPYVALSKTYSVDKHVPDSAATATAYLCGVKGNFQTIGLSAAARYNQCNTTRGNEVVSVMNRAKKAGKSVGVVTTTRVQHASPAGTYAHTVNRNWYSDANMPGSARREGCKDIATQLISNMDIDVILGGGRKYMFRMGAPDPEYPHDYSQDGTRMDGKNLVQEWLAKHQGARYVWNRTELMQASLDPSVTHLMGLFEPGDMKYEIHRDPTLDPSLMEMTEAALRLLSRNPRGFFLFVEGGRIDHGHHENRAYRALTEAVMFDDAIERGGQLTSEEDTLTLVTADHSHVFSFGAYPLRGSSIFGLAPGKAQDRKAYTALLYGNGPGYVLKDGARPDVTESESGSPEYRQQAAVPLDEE
Assay: cell-based or functional assay

Binder | EC50 (pM), Jurkat NFAT reporter assay to show cynomolgus cross-reactivity [pM]
B1 | 45
B2 | 52

Biological target: T2, human PLAP (ALPP) expressed on CHO-K1 …
Assay: cell-based or functional assay
Remark: another data set of the same source

Binder | EC50 (pM), Jurkat NFAT reporter assay to show cynomolgus cross-reactivity [pM]
B1 | 98
B2 | 37
